Our source for the binding result and Kd values is article PMC6962051, “Auxiliary-assisted chemical ubiquitylation of NEMO and linear extension by HOIP” (Communications chemistry, 2019).

Series [1] deals with the molecule itself. The series is described as follows: circular dichroism thermal melting at different concentrations; PBS pH 7.4; ellipticity at 222 nm, 2-80 °C, 2 °C/min; melting temperature rises with the concentration of NEMO_(CoZi) (20.2, 24.9, 28.5 °C); monomer to coiled-coil dimer. For orientation: Circular dichroism is widely used to follow secondary structure.
The target in series [2] is T1, linear di-Ubiquitin (UniProt P0CG47 1-76; P0CG47 1-76).
T1 construct: ubiquitin (1-76), distal unit of the linear (M1-linked) dimer; ubiquitin (1-76), proximal unit, its Met1 joined by a peptide bond to Gly76 of the first unit; also called linear diubiquitin chains
The series is described as follows: BLI; biotinylated NEMO_(CoZi) or NEMO_(CoZi)-Ub immobilised on streptavidin biosensors (~2 ug/mL); di-Ub at 2-225 uM; 25 °C; 100 s association, 100 s dissociation; 10 mM HEPES pH 7.4, 150 mM NaCl, 3 mM EDTA, 0.005% Tween-20; equilibrium analysis of response against di-Ub concentration. Particulars: both partners purified.

B1: synthetic biotinylated mouse NEMO CoZi domain (NEMO_(CoZi)), 83-mer (domain or fragment)
chain: EDLRQQLQQAEEALVAKQELIDKLKEEAEQHKIVMETVPVLKAQADIYKADFQAERHAREKLVEKKEYLQEQLEQLQREFNKL
modifications: biotin on the N-terminus; C-terminal amide
notes: CoZi (coiled-coil and leucine zipper) domain of mouse NEMO, 83-mer; The unmodified peptide is the same 83-mer after Alloc removal, without the auxiliary; also called unmodified NEMO_(CoZi); source: synthetic peptide (solid-phase synthesis in a single piece, HPLC purified); not shown: biotin, N-terminal, kept
A word on the Kd: it is the equilibrium constant for the complex coming apart. Regarding B1, the binding result in series [1] is “binds”. This molecule registered a Kd in series [2] of 25 µM.
